Activity (relative to TGIRT) data for one substance are collected here from patent US20240360477.

This data set has as its system MCP-TGIRT (GsI-IIC RT) fusion. Kind of data set: cell_activity. Particulars: control used for normalization, HEK293T.

“nanoluciferase mRNA with MS2 loops hybridized to DNA primer” gave an activity (relative to TGIRT) of 1.
